Data published in publication PMC9892492, “Bioconversion of 4-hydroxyestradiol by extradiol ring-cleavage dioxygenases from Novosphingobium sp. PP1Y” (Scientific Reports, 2023).

B1: PP00193 (Novosphingobium sp. PP1Y) (protein)
chain: MALTGVLRPGYVQLRVLDLDEAIQHYRDRIGLNLVSVEDGRAFFQAFDEFDRHSIILREADSAGLDRMAFKVAKDADLDHFAERLLDMGVHVDIIPAGEDPGVGRKIRFNTPTAHVFDLYAEMELSETGPAVRNPDVWIAEPRGMRATRFDHCALNGVDISASAKIFVEALDFSVTEELVDEASGTRLGIFLSCSNKAHDVAFLGYPEDGRIHHTSFNLESWHDVGHAADIISRYDISLDIGPTRHGITRGQTIYFFDPSGNRNETFSGGYTYYPDNPRRMWQAENAGKAIFYYEKALNDRFMTVNT
notes: full ORF in pET22b(+), E. coli BL21(DE3); Q-Sepharose batch purified; no tag mentioned
B2: PP00124 (Novosphingobium sp. PP1Y) (protein)
chain: MVAVTELGYLGLTVTDLDAWRSYAAEVAGMEIVDEGEGDCLYLRMDQWHHRIALHAGDTDDLAYLGWRVAGPVEFDAMVAQLAAAGIAVEVASEAEARERRVLGLAKLADPGGNPTEIFYAPQVDTHKPFHPGRPMFGRFLTGSEGIGHCILRQDDVAAAAAFYGLLGLRGSVEYHLQLPNGMVAQPYFMHCNERQHSIAFGLGPMEKRINHLMFEYTDLDDLGLAHDIVRARKIDVALQLGKHANDQALTFYCANPSGWLWEFGWGARKAPSQQEYYTRDIFGHGNEAAGYGMDIPLG
notes: as for B1
B3: PP26077 (Novosphingobium sp. PP1Y) (protein)
chain: MGIKALGYVVVETAKPEEWNTFLTQFAGAMRAPDAADGAALYRVDDRVFRFRIEAGTREWFVAAGYELTDRAALDALAVRIGDAARPVEWADANEAAGRGAEAMFRTSDPAGNGLEFYCGDARSDKPFVSPIGVPEFLTGDLGMGHAVFSAPDFEETIAFHRDVVGFHETDMPRFHLMGPDAPSMGFAFLHADNGRHHSIAFGEGPVPPSGAVHIMLELPDLIEVGKAHDRMKRFGYPESATLGRHVNDETTGFYVQTPSGFDLEIGCDSLIIDPASWEVTKHEGISVWGHEWAWQKALKEQQEQEKGA
notes: as for B1

Tests used:
Experiment in all cases: purified protein
Conditions in all cases: 50 mM Tris/HCl pH 7.5, 25 °C, O2 co-substrate, Fe(II) enzyme
Cc1cccc(O)c1O = test system: T1, Cc1cccc(O)c1O; assay type: biochemical, Novosphingobium sp. PP1Y
T1 construct: full ORF in pET22b(+), E. coli BL21(DE3); Q Sepharose column purified, contaminated; no tag mentioned

Oc1cccc(-c2ccccc2)c1O = test system: Oc1cccc(-c2ccccc2)c1O
[1] = test system: [H][C@@]12CCc3c(ccc(O)c3O)[C@@]1([H])CC[C@]1(C)[C@@H](O)CC[C@@]21[H]
purified protein [2] = substrate: Oc1cccc(-c2ccccc2)c1O; remark: listed apart in the source
purified protein [3] = substrate: Cc1cccc(O)c1O; assay type: biochemical, Novosphingobium sp. PP1Y
purified protein [4] = substrate: Cc1ccc(O)c(O)c1; assay type: biochemical, Novosphingobium sp. PP1Y
purified protein [5] = substrate: Oc1ccccc1O; assay type: biochemical, Novosphingobium sp. PP1Y
purified protein [6] = substrate: [H][C@@]12CCc3c(ccc(O)c3O)[C@@]1([H])CC[C@]1(C)[C@@H](O)CC[C@@]21[H]; assay type: biochemical, Novosphingobium sp. PP1Y

Row | Molecule | Km (purified protein [2]) [µM] | kcat (purified protein [2]) [s⁻¹] | kcat/Km (purified protein [2]) [M⁻¹ s⁻¹] | Km (purified protein [3]) [µM] | kcat (purified protein [3]) [s⁻¹] | kcat/Km (purified protein [3]) [M⁻¹ s⁻¹] | Km (purified protein [4]) [µM] | kcat (purified protein [4]) [s⁻¹] | kcat/Km (purified protein [4]) [M⁻¹ s⁻¹] | Km (purified protein [5]) [µM] | kcat (purified protein [5]) [s⁻¹] | kcat/Km (purified protein [5]) [M⁻¹ s⁻¹] | also measured
1 | PP28735 (Novosphingobium sp. PP1Y) |  |  |  |  |  |  |  |  |  |  |  |  | Km (Cc1cccc(O)c1O): 451 µM; kcat (Cc1cccc(O)c1O): 1.47 s⁻¹; kcat/Km (Cc1cccc(O)c1O): 3300 M⁻¹ s⁻¹; Km (Oc1cccc(-c2ccccc2)c1O): 67.90 µM; kcat (Oc1cccc(-c2ccccc2)c1O): 18.6 s⁻¹; kcat/Km (Oc1cccc(-c2ccccc2)c1O): 270000 M⁻¹ s⁻¹; Km [1]: 1.90 µM; kcat [1]: 38.2 s⁻¹; kcat/Km [1]: 2.01e+07 M⁻¹ s⁻¹
2 | B1 | 3.15 | 30.5 | 9.7e+06 | 3.17 | 225 | 7.09e+07 | 1.89 | 120 | 6.35e+07 | 1.69 | 194 | 1.15e+08 | 
3 | B2 | 3.70 | 13.8 | 3.72e+06 | 2.90 | 10.2 | 3.53e+06 | 1.80 | 2.97 | 1.65e+06 | 38.20 | 5.44 | 140000 | Km (purified protein [6]): 0.75 µM; kcat (purified protein [6]): 8.6 s⁻¹; kcat/Km (purified protein [6]): 1.14e+07 M⁻¹ s⁻¹
4 | B3 | 35.20 | 8.9 | 250000 | 2600 | 3 | 1200 |  |  |  |  |  |  | 
